Data reported in publication PMC5300155, “Biochemical and biophysical investigations of the interaction between human glucokinase and pro-apoptotic BAD” (PLoS ONE, 2017).
Entries after “also recorded” stand apart in the source; their conditions may differ.

T1: human pancreatic GCK (Homo sapiens, UniProt P35557)
T1 construct: hexahistidine (N); made in house; host or cells: glucokinase auxotroph BM5340(DE3)
T1 sequence (P35557 1-465): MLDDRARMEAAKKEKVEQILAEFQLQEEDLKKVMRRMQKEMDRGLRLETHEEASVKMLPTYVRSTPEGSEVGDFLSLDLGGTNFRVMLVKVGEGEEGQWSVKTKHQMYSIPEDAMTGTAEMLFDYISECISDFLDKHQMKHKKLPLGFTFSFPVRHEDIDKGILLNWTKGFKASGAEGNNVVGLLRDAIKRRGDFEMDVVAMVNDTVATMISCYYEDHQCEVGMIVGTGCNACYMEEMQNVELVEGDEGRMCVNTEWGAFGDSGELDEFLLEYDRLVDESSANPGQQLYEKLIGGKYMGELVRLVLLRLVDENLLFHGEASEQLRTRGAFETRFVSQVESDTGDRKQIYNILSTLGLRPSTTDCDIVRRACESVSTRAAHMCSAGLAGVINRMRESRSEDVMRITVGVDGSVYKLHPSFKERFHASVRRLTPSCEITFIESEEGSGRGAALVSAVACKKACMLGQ

B1: BAD-GST: recombinant human BAD with N-terminal hexahistidine tag and C-terminal GST fusion, TEV consensus sequence between (protein)
chain: MFQIPEFEPSEQEDSSSAERGLGPSPAGDGPSGSGKHHRQAPGLLWDASHQQEQPTSSSHHGGAGAVEIRSRHSSYPAGTEDDEGMGEEPSPFRGRSRSAPPNLWAAQRYGRELRRMSDEFVDSFKKGLPRPKSAGTATQMRQSSSWTRVFQSWWDRNLGRGSSAPSQ
modifications: left off: His6, N-terminal, state not stated | GST, C-terminal, kept

Columns and labels:
human pancreatic GCK [1] = target: T1, human pancreatic GCK; test: Isothermal titration calorimetry with GCK; assay type: binding; conditions: peptide up to 50 μM into GCK (10 μM), presence and absence of 0.2 M glucose, potassium phosphate 25 mM, DMSO 5%, 25°C
Protocol: Recombinant human pancreatic GCK containing an N-terminal hexahistidine tag was produced in the glucokinase auxotroph BM5340(DE3) and purified using a previously described procedure. TEV protease was expressed as a GST-fusion protein from a pGEX plasmid encoding the S219V variant, provided by David Waugh (Addgene plasmid 8827). Expression was induced with IPTG (1 mM) for 4 h at 30°C. Cell pellets were resuspended in Tris buffer (50 mM, pH 8.0) containing NaCl (100 mM), glycerol (10% v/v), benzamidine (1 mM) and dithiothreitol (10 mM) and lysed via French Press. Polyethyleneimine (0.1%) was added to the lysate and protein was purified on a glutathione-affinity column (GSTrap, GE Sciences). TEV protease was flash frozen and stored at -80°C for up to 1 month.
Isothermal titration calorimetry was performed at 25°C using a MicroCal VP-ITC (GE Healthcare) instrument. Bcl-xL (100 μM) in BAD buffer (0.1 M Tris, 0.1 M KCl, 0.5 M arginine, 2.5 mM CHAPS, 5 mM TCEP, 10% glycerol, pH 8.5) was titrated into the calorimeter cell containing size-exclusion chromatography purified BAD-GST (10–18 μM) in 4 μL injections. A 21-residue phosphorylated peptide containing the BH3 domain of BAD was synthesized and purified to >95% by Peptide2.0 (pBH3 = NLWAAQRYGRELRRM(p)SDKFVD). The peptide (300 μM) in potassium phosphate buffer (25 mM) containing KCl (25 mM), TCEP (4 mM) and DMSO (5%) with and without glucose (200 mM) was titrated into the cell containing GCK (10 μM) previously dialyzed against the same buffer. GCK (100 μM) in BAD buffer was titrated into the cell containing S118D BAD-GST (10–15 μM) in 13 μL injections. Data were analyzed using Origin software.

Bcl-xL [2] = target: T2, Bcl-xL (Homo sapiens, UniProt Q07817, DEL45-84); test: Size-exclusion chromatography of 1:1 mixture with Bcl-xL; assay type: binding; conditions: 1:1 mixture of purified Bcl-xL and BAD-GST; BAD buffer pH 8.5, 4°C
T2 construct: made in house
T2 sequence (Q07817 with tags, fused parts or gaps DEL45-84): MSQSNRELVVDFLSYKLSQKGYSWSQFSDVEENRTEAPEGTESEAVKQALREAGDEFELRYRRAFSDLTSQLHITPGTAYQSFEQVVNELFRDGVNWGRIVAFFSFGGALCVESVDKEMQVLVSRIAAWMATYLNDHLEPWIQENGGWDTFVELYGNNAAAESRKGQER
Protocol: (§1) Size-exclusion chromatography was performed on a HiPrep 16/60 Sephacryl S-200 HR column (GE Healthcare) connected to a Bio-Rad DuoFlow FPLC. The column was calibrated with thyroglobulin (669 kDa), γ-globulin (158 kDa), ovalbumin (43 kDa), myoglobin (17 kDa), and vitamin B12 (1.35 kDa). All proteins were analyzed in BAD buffer (0.1 M Tris, 0.1 M KCl, 0.5 M arginine, 2.5 mM CHAPS, 5 mM TCEP, 10% glycerol, pH 8.5) at a flow rate of 0.02 mL/min at 4°C. Protein samples were concentrated to 800 μL and filtered through 0.2 μm filters before injection onto the size-exclusion column. For complex formation, equimolar mixtures of proteins were added to BAD buffer in a final volume of 800 μL and incubated on ice 30 min prior to injection onto the column.

human pancreatic GCK [3] = target: T1, human pancreatic GCK; test: Analytical ultracentrifugation sedimentation velocity of equimolar mixtures with GCK; assay type: binding; conditions: equimolar mixture, BAD buffer pH 8.5, 20°C, 50,000 x g
Protocol: (§2) Sedimentation velocity experiments were conducted with an Optima XLI Ultracentrifuge (Beckman Coulter) using a four-hole rotor with three 420 μL samples in standard double-sector Epon centerpieces equipped with sapphire windows. Absorbance and interference data were collected simultaneously. Size-exclusion purified proteins were concentrated to OD280 nm = 0.3–1.0 prior to centrifugation. For complex formation, proteins were mixed in a 1:1 molar ratio in BAD buffer (0.1 M Tris, 0.1 M KCl, 0.5 M arginine, 2.5 mM CHAPS, 5 mM TCEP, 10% glycerol, pH 8.5) and incubated on ice 30 min prior to the start of the experiment. Experiments were carried out at 20°C and 50,000 x g. Data were analyzed with Ultrascan III software using a minimum of 70 scans per sample for analysis. Van Holde-Weischet analysis was performed to obtain S20,W values.

human pancreatic GCK [4] = target: T1, human pancreatic GCK; test: Size-exclusion chromatography of mixtures with GCK; assay type: binding; conditions: mixtures across a range of protein concentrations; BAD buffer pH 8.5, 4°C
Protocol: as §1

Bcl-xL [5] = target: T2, Bcl-xL; test: Analytical ultracentrifugation sedimentation velocity of 1:1 mixture BAD-GST and Bcl-xL; assay type: binding; conditions: 1:1 mixture of BAD-GST and Bcl-xL, 20°C, 50,000 x g, BAD buffer pH 8.5
Protocol: as §2

[6] = Aggregation in refolding buffers (spin-filter assay); assay type: physicochemical; conditions: CHAPS (2.5 mM) and arginine (0.5 M)
Protocol: To determine buffer conditions for BAD-GST refolding, we made use of a spin-filter assay developed by Bondos and Bicknell. Purified protein was collected after size-exclusion chromatography and diluted into test buffers containing various stabilizers and detergents, including Triton-X (0.2%), CHAPS (1.25–6.0 mM), arginine (0.1–0.6 M), glycerol (20%) or urea (1.5 M). After overnight incubation at 4°C, diluted protein was filtered across a 100,000 MWCO microconcentrator (Amicon Ultra 0.5, EMD Millipore) at 14,000 x g. Concentrate was considered aggregated protein, while flow through was considered non-aggregated protein. Concentrate and flow through were resuspended to equal volumes and analyzed via SDS-PAGE; protein was visualized with SYPRO Ruby stain on a fluorescence imaging scanner. ImageJ software was used to measure ratios of non-aggregated to aggregated protein [26].

| Sedimentation coefficient (Bcl-xL [5]) | Molecule | Heat change on addition to GCK (ITC) (human pancreatic GCK [1]) | Heat change on addition to GCK (ITC) (human pancreatic GCK [1]; listed as phosphorylated BH3 peptide) | Complex formation with Bcl-xL by size-exclusion chromatography (Bcl-xL [2]) | Complex with GCK by analytical ultracentrifugation (human pancreatic GCK [3]) | Complex with GCK by size-exclusion chromatography (human pancreatic GCK [4]) | Aggregation, effect of refolding additives [6] |
| --- | --- | --- | --- | --- | --- | --- | --- |
| – | NLWAAQRYGRELRRM(p)SDKFVD [pBH3, 21-residue phosphorylated peptide containing the BH3 domain of BAD] | No detectable heat change | do not indicate an interaction | – | – | – | – |
| 2.1 | B1 | – | – | three peaks corresponding to monomeric Bcl-xL, the BAD-GST dimer, and the BAD-GST:Bcl-xL complex; also recorded: confirms formation of a higher molecular weight complex between BAD-GST and Bcl-xL | does not reveal a higher molecular weight component indicative of complex formation | No evidence of a higher molecular weight complex is observed; also recorded: provides no evidence of complex formation | essential to prevent aggregation of recombinant BAD |
